Assay results taken from patent US20110263454A1, “Methods of Identifying Functional Characteristics of Promoters, Transcription Modifying Proteins and Transcription Modulating Agents” (Salk Institute for Biological Studies, priority 2008, published 2011).

B1: HNF4g: Hepatocyte Nuclear Factor γ (NR2A2), cDNA driver (protein, UniProt Q14541 1-408, looked up)
Hepatocyte nuclear factor …: MNTTDNGVNCLCAICGDRATGKHYGASSCDGCKGFFRRSIRKSHVYSCRFSRQCVVDKDKRNQCRYCRLRKCFRAGMKKEAVQNERDRISTRRSTFDGSNIPSINTLAQAEVRSRQISVSSPGSSTDINVKKIASIGDVCESMKQQLLVLVEWAKYIPAFCELPLDDQVALLRAHAGEHLLLGATKRSMMYKDILLLGNNYVIHRNSCEVEISRVANRVLDELVRPFQEIQIDDNEYACLKAIVFFDPDAKGLSDPVKIKNMRFQVQIGLEDYINDRQYDSRGRFGELLLLLPTLQSITWQMIEQIQFVKLFGMVKIDNLLQEMLLGGASNDGSHLHHPMHPHLSQDPLTGQTILLGPMSTLVHADQISTPETPLPSPPQGSGQEQYKIAANQASVISHQHLSKQKQL
B2: TR2: Testicular Orphan Nuclear Receptor 2 (NR2C1), cDNA driver (protein, UniProt P13056 1-603, looked up)
Nuclear receptor subfamily 2 …: MATIEEIAHQIIEQQMGEIVTEQQTGQKIQIVTALDHNTQGKQFILTNHDGSTPSKVILARQDSTPGKVFLTTPDAAGVNQLFFTTPDLSAQHLQLLTDNSPDQGPNKVFDLCVVCGDKASGRHYGAVTCEGCKGFFKRSIRKNLVYSCRGSKDCIINKHHRNRCQYCRLQRCIAFGMKQDSVQCERKPIEVSREKSSNCAASTEKIYIRKDLRSPLTATPTFVTDSESTRSTGLLDSGMFMNIHPSGVKTESAVLMTSDKAESCQGDLSTLANVVTSLANLGKTKDLSQNSNEMSMIESLSNDDTSLCEFQEMQTNGDVSRAFDTLAKALNPGESTACQSSVAGMEGSVHLITGDSSINYTEKEGPLLSDSHVAFRLTMPSPMPEYLNVHYIGESASRLLFLSMHWALSIPSFQALGQENSISLVKAYWNELFTLGLAQCWQVMNVATILATFVNCLHNSLQQDKMSTERRKLLMEHIFKLQEFCNSMVKLCIDGYEYAYLKAIVLFSPDHPSLENMEQIEKFQEKAYVEFQDYITKTYPDDTYRLSRLLLRLPALRLMNATITEELFFKGLIGNIRIDSVIPHILKMEPADYNSQIIGHSI
B3: TR4: Testicular Orphan Nuclear Receptor 4 (NR2C2), cDNA driver (protein, UniProt P49116 1-596, looked up)
Nuclear receptor subfamily 2 …: MTSPSPRIQIISTDSAVASPQRIQIVTDQQTGQKIQIVTAVDASGSPKQQFILTSPDGAGTGKVILASPETSSAKQLIFTTSDNLVPGRIQIVTDSASVERLLGKTDVQRPQVVEYCVVCGDKASGRHYGAVSCEGCKGFFKRSVRKNLTYSCRSNQDCIINKHHRNRCQFCRLKKCLEMGMKMESVQSERKPFDVQREKPSNCAASTEKIYIRKDLRSPLIATPTFVADKDGARQTGLLDPGMLVNIQQPLIREDGTVLLATDSKAETSQGALGTLANVVTSLANLSESLNNGDTSEIQPEDQSASEITRAFDTLAKALNTTDSSSSPSLADGIDTSGGGSIHVISRDQSTPIIEVEGPLLSDTHVTFKLTMPSPMPEYLNVHYICESASRLLFLSMHWARSIPAFQALGQDCNTSLVRACWNELFTLGLAQCAQVMSLSTILAAIVNHLQNSIQEDKLSGDRIKQVMEHIWKLQEFCNSMAKLDIDGYEYAYLKAIVLFSPDHPGLTSTSQIEKFQEKAQMELQDYVQKTYSEDTYRLARILVRLPALRLMSSNITEELFFTGLIGNVSIDSIIPYILKMETAEYNGQITGASL
B4: Erb: Estrogen Receptor β (NR3A2, ERb), cDNA driver (protein, UniProt Q92731 1-530, looked up)
Estrogen receptor beta: MDIKNSPSSLNSPSSYNCSQSILPLEHGSIYIPSSYVDSHHEYPAMTFYSPAVMNYSIPSNVTNLEGGPGRQTTSPNVLWPTPGHLSPLVVHRQLSHLYAEPQKSPWCEARSLEHTLPVNRETLKRKVSGNRCASPVTGPGSKRDAHFCAVCSDYASGYHYGVWSCEGCKAFFKRSIQGHNDYICPATNQCTIDKNRRKSCQACRLRKCYEVGMVKCGSRRERCGYRLVRRQRSADEQLHCAGKAKRSGGHAPRVRELLLDALSPEQLVLTLLEAEPPHVLISRPSAPFTEASMMMSLTKLADKELVHMISWAKKIPGFVELSLFDQVRLLESCWMEVLMMGLMWRSIDHPGKLIFAPDLVLDRDEGKCVEGILEIFDMLLATTSRFRELKLQHKEYLCVKAMILLNSSMYPLVTATQDADSSRKLAHLLNAVTDALVWVIAKSGISSQQQSMRLANLLMLLSHVRHASNKGMEHLLNMKCKNVVPVYDLLLEMLNAHVLRGCKSSITGSECSPAEDSKSKEGSQNPQSQ
B5: ERR2: Estrogen Related Receptor β (NR3B2, ERRb), cDNA driver (protein, UniProt O95718 1-433, looked up)
Steroid hormone receptor ERR2: MSSDDRHLGSSCGSFIKTEPSSPSSGIDALSHHSPSGSSDASGGFGLALGTHANGLDSPPMFAGAGLGGTPCRKSYEDCASGIMEDSAIKCEYMLNAIPKRLCLVCGDIASGYHYGVASCEACKAFFKRTIQGNIEYSCPATNECEITKRRRKSCQACRFMKCLKVGMLKEGVRLDRVRGGRQKYKRRLDSESSPYLSLQISPPAKKPLTKIVSYLLVAEPDKLYAMPPPGMPEGDIKALTTLCDLADRELVVIIGWAKHIPGFSSLSLGDQMSLLQSAWMEILILGIVYRSLPYDDKLVYAEDYIMDEEHSRLAGLLELYRAILQLVRRYKKLKVEKEEFVTLKALALANSDSMYIEDLEAVQKLQDLLHEALQDYELSQRHEEPWRTGKLLLTLPLLRQTAAKAVQHFYSVKLQGKVPMHKLFLEMLEAKV
B6: ERR3: Estrogen Related Receptor γ (NR3B3, ERRg), cDNA driver (protein, UniProt P62508 1-458, looked up)
Estrogen-related receptor …: MDSVELCLPESFSLHYEEELLCRMSNKDRHIDSSCSSFIKTEPSSPASLTDSVNHHSPGGSSDASGSYSSTMNGHQNGLDSPPLYPSAPILGGSGPVRKLYDDCSSTIVEDPQTKCEYMLNSMPKRLCLVCGDIASGYHYGVASCEACKAFFKRTIQGNIEYSCPATNECEITKRRRKSCQACRFMKCLKVGMLKEGVRLDRVRGGRQKYKRRIDAENSPYLNPQLVQPAKKPYNKIVSHLLVAEPEKIYAMPDPTVPDSDIKALTTLCDLADRELVVIIGWAKHIPGFSTLSLADQMSLLQSAWMEILILGVVYRSLSFEDELVYADDYIMDEDQSKLAGLLDLNNAILQLVKKYKSMKLEKEEFVTLKAIALANSDSMHIEDVEAVQKLQDVLHEALQDYEAGQHMEDPRRAGKMLMTLPLLRQTSTKAVQHFYNIKLEGKVPMHKLFLEMLEAKV
B7: CTF1: COUP-TF1 (NR2F1), cDNA driver (protein, UniProt P10589 1-423, looked up)
COUP transcription factor 1: MAMVVSSWRDPQDDVAGGNPGGPNPAAQAARGGGGGAGEQQQQAGSGAPHTPQTPGQPGAPATPGTAGDKGQGPPGSGQSQQHIECVVCGDKSSGKHYGQFTCEGCKSFFKRSVRRNLTYTCRANRNCPIDQHHRNQCQYCRLKKCLKVGMRREAVQRGRMPPTQPNPGQYALTNGDPLNGHCYLSGYISLLLRAEPYPTSRYGSQCMQPNNIMGIENICELAARLLFSAVEWARNIPFFPDLQITDQVSLLRLTWSELFVLNAAQCSMPLHVAPLLAAAGLHASPMSADRVVAFMDHIRIFQEQVEKLKALHVDSAEYSCLKAIVLFTSDACGLSDAAHIESLQEKSQCALEEYVRSQYPNQPSRFGKLLLRLPSLRTVSSSVIEQLFFVRLVGKTPIETLIRDMLLSGSSFNWPYMSIQCS
B8: CTF2: COUP-TF2 (NR2F2), cDNA driver (protein, UniProt P24468 1-414, looked up)
COUP transcription factor 2: MAMVVSTWRDPQDEVPGSQGSQASQAPPVPGPPPGAPHTPQTPGQGGPASTPAQTAAGGQGGPGGPGSDKQQQQQHIECVVCGDKSSGKHYGQFTCEGCKSFFKRSVRRNLSYTCRANRNCPIDQHHRNQCQYCRLKKCLKVGMRREAVQRGRMPPTQPTHGQFALTNGDPLNCHSYLSGYISLLLRAEPYPTSRFGSQCMQPNNIMGIENICELAARMLFSAVEWARNIPFFPDLQITDQVALLRLTWSELFVLNAAQCSMPLHVAPLLAAAGLHASPMSADRVVAFMDHIRIFQEQVEKLKALHVDSAEYSCLKAIVLFTSDACGLSDVAHVESLQEKSQCALEEYVRSQYPNQPTRFGKLLLRLPSLRTVSSSVIEQLFFVRLVGKTPIETLIRDMLLSGSSFNWPYMAIQ

system: hG6PD promoter; assay: NHR-promoter luciferase screen, hG6PD promoter; format: cell-based, human; conditions: G6PD promoter reporter; co-transfected HR, without or with its ligand
Summary of the method: (§1)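 CV-1 cells were co-transfected with 50 ng NHR (homodimer or NHR/RXR heterodimer), 100 ng promoter-luciferase construct and 50 ng LacZ. Luciferase was normalized to LacZ and to a no-NHR/no-ligand control.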

Molecule	Luc. act., normalized to lacZ
B1	42.1
B2	45.5
B3	66.2
B4	45.3
B5	59.1
B6	63.7
B7	39.7
B8	43.9

same assay, conditions: G6PD promoter reporter; co-transfected HR, without or with its ligand; relative to control

Molecule	Normalized Luc. act., normalized to control
B1	1.1
B2	1.2
B3	1.8
B4	1.2
B5	1.6
B6	1.7
B7	1.1
B8	1.2

same assay, conditions: hG6PD promoter-luciferase, CV-1 cells, NHR +/- ligand, control = 1.00

Molecule	luciferase activity normalized to lacZ activity and to a control, hG6PD
B1	1.13
B2	1.22
B3	1.77
B4	1.21
B5	1.58
B6	1.70
B7	1.06
B8	1.17

system: hIFNg promoter; assay: NHR-promoter luciferase screen, hIFNg promoter; format: cell-based, human; conditions: IFNg promoter; HR component without or with ligand
Summary of the method: as §1

Molecule	Luc. act., normalized to lacZ	Normalized Luc. act., normalized to control
B1	13.3	0.8
B2	13.6	0.9
B3	42.5	2.7
B4	22.0	1.4
B5	58.9	3.7
B6	27.9	1.8
B7	31.8	2.0
B8	35.0	2.2

same assay, conditions: transcription factor +/- ligand; control = 1.00

Molecule	hIFNg promoter reporter activity
B1	0.83
B2	0.85
B3	2.67
B4	1.39
B5	3.70
B6	1.75
B7	2.00
B8	2.20

system: mADRP promoter; assay: NHR-promoter luciferase screen, mADRP promoter; format: cell-based, mouse; conditions: ADRP promoter; HR/ligand component
Summary of the method: as §1

Molecule	Luc. act., normalized to lacZ	Normalized Luc. act., normalized to control
B1	511.7	1.0
B2	684.7	1.4
B3	1003.3	2.0
B4	536.9	1.1
B5	874.7	1.8
B7	393.3	0.8
B8	893.8	1.8

same assay, conditions: transcription factor +/- ligand; control = 1.00

Molecule	mADRP promoter reporter activity
B1	1.03
B2	1.38
B3	2.02
B4	1.08
B5	1.76
B6	3.37
B7	0.79
B8	1.80
